What was measured:
Experiment in all cases: cell-based or functional assay
[1] = target: HIV-1 Env of isolate JRFL (HIV-1)
[2] = target: HIV-1 Env of isolate MGRM-AE-004 (HIV-1)
[3] = target: HIV-1 Env of isolate MGRM-AG-012 (HIV-1)
[4] = target: HIV-1 Env of isolate MGRM-Chronic-B-012 (HIV-1)
[5] = target: HIV-1 Env of isolate MGRM-AG-006 (HIV-1)
[6] = target: HIV-1 Env of isolate MGRM-G-009 (HIV-1)
[7] = target: HIV-1 Env of isolate MGRM-AG-013 (HIV-1)
[8] = target: HIV-1 92RW020 envelope glycoprotein (Env) on pseudovirus (HIV-1)
[9] = target: HIV-1 92UG005 envelope glycoprotein (Env) on pseudovirus (HIV-1)
[10] = target: HIV-1 Env of isolate MGRM-Chronic-B-020 (HIV-1)
[11] = target: HIV-1 Env of isolate MGRM-AE-007 (HIV-1)
[12] = target: HIV-1 Env of isolate MGRM-AE-006 (HIV-1)
[13] = target: aMLV envelope (negative control pseudovirus)
[14] = target: HIV-1 NL43 envelope glycoprotein (Env) on pseudovirus (HIV-1)
[15] = target: HIV-1 Env of isolate MGRM-AE-008 (HIV-1)
[16] = target: HIV-1 Env of isolate MGRM-Chronic-B-011 (HIV-1)
[17] = target: HIV-1 92BR020 envelope glycoprotein (Env) on pseudovirus (HIV-1)
[18] = target: HIV-1 Env of isolate MGRM-G-004 (HIV-1)
[19] = target: HIV-1 Env of isolate MGRM-Chronic-B-010 (HIV-1)
[20] = target: HIV-1 Env of isolate MGRM-AG-009 (HIV-1)
[21] = target: HIV-1 Env of isolate MGRM-AG-008 (HIV-1)
[22] = target: HIV-1 Env of isolate MGRM-Chronic-B-017 (HIV-1)
[23] = target: HIV-1 Env of isolate MGRM-Chronic-B-018 (HIV-1)
[24] = target: HIV-1 Env of isolate MGRM-AG-002 (HIV-1)
[25] = target: HIV-1 Env of isolate MGRM-AG-005 (HIV-1)
[26] = target: HIV-1 Env of isolate MGRM-AG-003 (HIV-1)
[27] = target: HIV-1 Env of isolate MGRM-AE-001 (HIV-1)
[28] = target: HIV-1 MGRM-F1-006 Env (pseudovirus) (HIV-1)
[29] = target: HIV-1 Env of isolate MGRM-Chronic-B-024 (HIV-1)
[30] = target: HIV-1 Env of isolate MGRM-AG-001 (HIV-1)
[31] = target: HIV-1 Env of isolate MGRM-AG-011 (HIV-1)
[32] = target: HIV-1 Env of isolate MGRM-Chronic-B-023 (HIV-1)
[33] = target: HIV-1 Env of isolate MGRM-AE-005 (HIV-1)
[34] = target: HIV-1 Env of isolate MGRM-G-006 (HIV-1)
[35] = target: HIV-1 Env of isolate MGRM-G-001 (HIV-1)
[36] = target: HIV-1 92TH021 envelope glycoprotein (Env) on pseudovirus (HIV-1)
[37] = target: HIV-1 92UG024 envelope glycoprotein (Env) on pseudovirus (HIV-1)

| Substance | IC50 (µg/ml), pseudovirus neutralization [1] [µg/mL] | IC50 (µg/ml), pseudovirus neutralization [2] [µg/mL] | IC50 (µg/ml), pseudovirus neutralization [3] [µg/mL] | IC50 (µg/ml), pseudovirus neutralization [4] [µg/mL] | IC50 (µg/ml), pseudovirus neutralization [5] [µg/mL] | IC50 (µg/ml), pseudovirus neutralization [6] [µg/mL] | IC50 (µg/ml), pseudovirus neutralization [7] [µg/mL] | IC90 (pseudovirus neutralization) [8] [µg/mL] | IC90 (pseudovirus neutralization) [9] [µg/mL] | IC50 (µg/ml), pseudovirus neutralization [10] [µg/mL] | IC50 (µg/ml), pseudovirus neutralization [11] [µg/mL] | IC50 (µg/ml), pseudovirus neutralization [12] [µg/mL] | IC50 (µg/ml), pseudovirus neutralization [13] [µg/mL] | IC90 (pseudovirus neutralization) [14] [µg/mL] | IC50 (µg/ml), pseudovirus neutralization [15] [µg/mL] | IC50 (µg/ml), pseudovirus neutralization [16] [µg/mL] | IC90 (pseudovirus neutralization) [17] [µg/mL] | IC50 (µg/ml), pseudovirus neutralization [18] [µg/mL] | IC50 (µg/ml), pseudovirus neutralization [19] [µg/mL] | IC50 (µg/ml), pseudovirus neutralization [20] [µg/mL] | further results |
| --- | --- | --- | --- | --- | --- | --- | --- | --- | --- | --- | --- | --- | --- | --- | --- | --- | --- | --- | --- | --- | --- |
| 2G12 (antibody) | 1.45 | > 50 | 1.94 | 0.22 | 3.92 | > 50 | 0.95 | 6.23 | > 50 | 0.2 | > 50 | > 50 | > 50 | 15.8 | > 50 | > 50 | 24.1 | > 50 | 1.5 | > 50 | IC50 (µg/ml), pseudovirus neutralization [21]: > 50 µg/mL; IC50 (µg/ml), pseudovirus neutralization [22]: > 50 µg/mL; IC50 (µg/ml), pseudovirus neutralization [23]: > 50 µg/mL; IC50 (µg/ml), pseudovirus neutralization [24]: 0.54 µg/mL; IC50 (µg/ml), pseudovirus neutralization [25]: > 50 µg/mL; IC50 (µg/ml), pseudovirus neutralization [26]: > 50 µg/mL; IC50 (µg/ml), pseudovirus neutralization [27]: > 50 µg/mL; IC50 (µg/ml), pseudovirus neutralization [28]: > 50 µg/mL; IC50 (µg/ml), pseudovirus neutralization [29]: > 50 µg/mL; IC50 (µg/ml), pseudovirus neutralization [30]: 0.69 µg/mL; IC50 (µg/ml), pseudovirus neutralization [31]: > 50 µg/mL; IC50 (µg/ml), pseudovirus neutralization [32]: 0.16 µg/mL; IC50 (µg/ml), pseudovirus neutralization [33]: > 50 µg/mL; IC50 (µg/ml), pseudovirus neutralization [34]: > 50 µg/mL; IC50 (µg/ml), pseudovirus neutralization [35]: > 50 µg/mL; IC90 (pseudovirus neutralization) [36]: > 50 µg/mL; IC90 (pseudovirus neutralization) [37]: 7.57 µg/mL |
| 4E10 (antibody) | 18.9 | 1.27 | 0.86 | 48 | 1.76 | 1.34 | 2.61 | 36.1 | > 50 | 2.45 | 0.45 | 0.23 | > 50 | 29.6 | 0.94 | 1.07 | > 50 | 1.47 | 1.69 | 31.4 | IC50 (µg/ml), pseudovirus neutralization [21]: 1.48 µg/mL; IC50 (µg/ml), pseudovirus neutralization [22]: 2.77 µg/mL; IC50 (µg/ml), pseudovirus neutralization [23]: 23.2 µg/mL; IC50 (µg/ml), pseudovirus neutralization [24]: 0.8 µg/mL; IC50 (µg/ml), pseudovirus neutralization [25]: 2.13 µg/mL; IC50 (µg/ml), pseudovirus neutralization [26]: 0.64 µg/mL; IC50 (µg/ml), pseudovirus neutralization [27]: 0.85 µg/mL; IC50 (µg/ml), pseudovirus neutralization [28]: 1.01 µg/mL; IC50 (µg/ml), pseudovirus neutralization [29]: 9.19 µg/mL; IC50 (µg/ml), pseudovirus neutralization [30]: 1.12 µg/mL; IC50 (µg/ml), pseudovirus neutralization [31]: 1.36 µg/mL; IC50 (µg/ml), pseudovirus neutralization [32]: 27.9 µg/mL; IC50 (µg/ml), pseudovirus neutralization [33]: 0.47 µg/mL; IC50 (µg/ml), pseudovirus neutralization [34]: 1.23 µg/mL; IC50 (µg/ml), pseudovirus neutralization [35]: 2.04 µg/mL; IC90 (pseudovirus neutralization) [36]: 23.5 µg/mL; IC90 (pseudovirus neutralization) [37]: 23.7 µg/mL |

Source: US20200024330A1
